Test results as given in patent publication US20030170203A1 (Human Genome Sciences, published 2003).

B1: extracellular domain of human TACI (aa 1-159) fused at its C-terminus to the Fc domain of human IgG1 (Fc fusion, UniProt O14836 1-159, looked up, not shown: a dimerising Fc or GST)
chain: MSGLGRSRRGGRSRVDQEERFPQGLWTGVAMRSCPEEQYWDPLLGTCMSCKTICNHQSQRTCAAFCRSLSCRKEQGKFYDHLLRDCISCASICGQHPKQCAYFCENKLRSPVNLPPELRRQRSGEVENNSDNSGRYQGLEHRGSEASPALPGLKLSADQ
notes: range 1-159; also called TACI-Fc
B2: BCMA-Fc (Fc fusion, human, UniProt Q02223 1-54, looked up)
chain: MLQMAGQCSQNEYFDSLLHACIPCQLRCSSNTPPLTCQRYCNASVTNSVKGTNA
notes: Control receptor surface of the BIAcore analysis; not shown: Fc

How the values were obtained:
[1] = target: T1, FLAG-tagged soluble form of TNF-gamma-beta (aa 72-251) (human, UniProt O95150 72-251); assay: co-immunoprecipitation with protein A-Sepharose, anti-Flag M2 immunoblot
T1 construct: also called FLAG-TL1β; FLAG-TNF-gamma-beta; not shown: FLAG tag of vector pFLAGCMV1
T1 sequence (looked up): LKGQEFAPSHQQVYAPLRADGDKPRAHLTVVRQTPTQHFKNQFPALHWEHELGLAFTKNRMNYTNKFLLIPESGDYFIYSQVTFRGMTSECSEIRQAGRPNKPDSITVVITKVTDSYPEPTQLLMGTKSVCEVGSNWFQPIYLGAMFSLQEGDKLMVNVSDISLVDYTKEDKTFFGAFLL
Description: The beads were then precipitated and washed extensively with PBST buffer (PBS, 0.5% Triton X-100) before boiled in SDS-sample buffer. Proteins were resolved on 4-20% Tris-Glycine gels (NOVEX), transferred to nitrocellulose membranes, and blotted with anti-Flag M2 monoclonal antibody (1 microgram/ml, Sigma) and horseradish peroxidase (HRP)-conjugated goat anti-mouse IgG antibody (0.5 microgram/ml).

[2] = target: T2, full length TNF-gamma-beta expressed on the cell surface (human, UniProt O95150 1-251); assay: flow cytometry on HEK293F stable transfectants expressing full length TNF-gamma-beta
T2 construct: whole, on cells; also called TNF-gamma-beta expressing cells
T2 sequence (looked up): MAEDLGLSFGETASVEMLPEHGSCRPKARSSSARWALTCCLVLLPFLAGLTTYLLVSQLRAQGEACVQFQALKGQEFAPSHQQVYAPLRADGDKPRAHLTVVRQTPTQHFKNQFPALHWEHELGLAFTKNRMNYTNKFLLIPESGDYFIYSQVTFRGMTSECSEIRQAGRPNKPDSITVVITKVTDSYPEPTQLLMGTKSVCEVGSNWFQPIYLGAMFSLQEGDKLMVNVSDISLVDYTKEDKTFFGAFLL
Description: TR6 has been previously described as a decoy receptor (Pitti et al., Nature 396:699-703 (1998); Yu et al., J. Biol Chem. 274:13733-6 (1999)) capable of competing with Fas and HveA for binding of FasL and LIGHT, respectively.
One million cells, in 0.1 ml of FACS buffer (PBS, 0.1% BSA, 0.1% NaN₃), were incubated with 0.1-1 microgram of protein or antibody at RT for 15 min. The cells were washed with 3 ml of FACS buffer, reacted with biotinylated primary antibody, and stained with PE-conjugated secondary antibody at RT for 15 min. Cells were then washed again, resuspended in 0.5 microgram/ml of propidium iodide, and live cells were gated and analyzed on a FACScan using the CellQuest software (BD Biosciences).

[3] = target: T3, recombinant, untagged TNF-gamma-beta protein (aa 72-251) from E. coli (human, UniProt O95150 72-251); assay: BIAcore 3000 (SPR), receptor-Fc amine-coupled to CM5 chip, TNF-gamma-beta in flow
T3 construct: Purified from E. coli
T3 sequence (looked up): T1 sequence (looked up)
Description: TNFR-Fc were covalently immobilized to the BIAcore sensor chip (CM5 chip) via amine groups using N-ethyl-N′-(dimethylaminopropyl) carbodiimide/N-hydroxysuccinimide chemistry. […] The amount of bound protein was determined during washing of the flow cell with HBS buffer (10 mM HEPES, pH 7.4, 150 mM NaCl, 3.4 mM EDTA, 0.005% Surfactant P20). The flow cell surface was regenerated by displacing bound protein by washing with 20 microliters of 10 mM glycine-HCl, pH 2.3. For kinetic analysis, the on and off rates were determined using the kinetic evaluation program in BIAevaluation 3 software using a 1:1 binding model and the global analysis method.

| binding result [1] | binding result [2] | binding result [3] | Binder |
| --- | --- | --- | --- |
| no binding | no binding | – | B1 |
| – | – | no binding (tested: 3-370 nM) | B2 |
